Literature values, collected in patent US20200069786A1, “COMPOSITION AND PROCESS FOR PREPARING VACCINE” (TREOS BIO ZRT., priority 2018, published 2020).
Where two headings read alike, the source gives them in different places.

Tested on: TSA
[1] = TSA expression rate in Cervical cancer
[2] = TSA expression rate in Esophageal
[3] = TSA expression rate in MELANOMA
[4] = TSA expression rate in PROSTATE cancer
[5] = TSA expression rate in GASTRIC cancer
[6] = TSA expression rate in LUNG cancer

B1: GAGE-2 (protein, UniProt Q6NT46 1-116, looked up)
G antigen 2A: MSWRGRSTYRPRPRRYVEPPEMIGPMRPEQFSDEVEPATPEEGEPATQRQDPAAAQEGQDEGASAGQGPKPEAHSQEQGHPQTGCECEDGPDGQEMDPPNPEEVKTPEEGEKQSQC
PANCREATIC
  TSA Expression Rate (ER): 17%

B2: CTCFL (protein, UniProt Q8NI51 1-663, looked up)
Transcriptional repressor …: MAATEISVLSEQFTKIKELELMPEKGLKEEEKDGVCREKDHRSPSELEAERTSGAFQDSVLEEEVELVLAPSEESEKYILTLQTVHFTSEAVELQDMSLLSIQQQEGVQVVVQQPGPGLLWLEEGPRQSLQQCVAISIQQELYSPQEMEVLQFHALEENVMVASEDSKLAVSLAETTGLIKLEEEQEKNQLLAERTKEQLFFVETMSGDERSDEIVLTVSNSNVEEQEDQPTAGQADAEKAKSTKNQRKTKGAKGTFHCDVCMFTSSRMSSFNRHMKTHTSEKPHLCHLCLKTFRTVTLLRNHVNTHTGTRPYKCNDCNMAFVTSGELVRHRRYKHTHEKPFKCSMCKYASVEASKLKRHVRSHTGERPFQCCQCSYASRDTYKLKRHMRTHSGEKPYECHICHTRFTQSGTMKIHILQKHGENVPKYQCPHCATIIARKSDLRVHMRNLHAYSAAELKCRYCSAVFHERYALIQHQKTHKNEKRFKCKHCSYACKQERHMTAHIRTHTGEKPFTCLSCNKCFRQKQLLNAHFRKYHDANFIPTVYKCSKCGKGFSRWINLHRHSEKCGSGEAKSAASGKGRRTRKRKQTILKEATKGQKEAAKGWKEAANGDEAAAEEASTTKGEQFPGEMFPVACRETTARVKEEVDEGVTCEMLLNTMDK
BRAIN
  TSA Expression Rate (ER): 9%
BREAST
  TSA Expression Rate (ER): 74%
HCC
  TSA Expression Rate (ER): 55%
LUNG
  TSA Expression Rate (ER): 36%
OVARIAN
  TSA Expression Rate (ER): 82%
PANCREATIC
  TSA Expression Rate (ER): 29%
TSA expression rate in CRC
  Expression Rate (ER) %: 80%
[1]
  Expression Rate (ER) %: 32%
[2]
  Expression Rate (ER) %: 56%
[3]
  Expression Rate (ER) %: 27%
[4]
  Expression Rate (ER) %: 98%

B3: PIWIL1 (protein, UniProt Q96J94 1-861, looked up)
Piwi-like protein 1: MTGRARARARGRARGQETAQLVGSTASQQPGYIQPRPQPPPAEGELFGRGRQRGTAGGTAKSQGLQISAGFQELSLAERGGRRRDFHDLGVNTRQNLDHVKESKTGSSGIIVRLSTNHFRLTSRPQWALYQYHIDYNPLMEARRLRSALLFQHEDLIGKCHAFDGTILFLPKRLQQKVTEVFSKTRNGEDVRITITLTNELPPTSPTCLQFYNIIFRRLLKIMNLQQIGRNYYNPNDPIDIPSHRLVIWPGFTTSILQYENSIMLCTDVSHKVLRSETVLDFMFNFYHQTEEHKFQEQVSKELIGLVVLTKYNNKTYRVDDIDWDQNPKSTFKKADGSEVSFLEYYRKQYNQEITDLKQPVLVSQPKRRRGPGGTLPGPAMLIPELCYLTGLTDKMRNDFNVMKDLAVHTRLTPEQRQREVGRLIDYIHKNDNVQRELRDWGLSFDSNLLSFSGRILQTEKIHQGGKTFDYNPQFADWSKETRGAPLISVKPLDNWLLIYTRRNYEAANSLIQNLFKVTPAMGMQMRKAIMIEVDDRTEAYLRVLQQKVTADTQIVVCLLSSNRKDKYDAIKKYLCTDCPTPSQCVVARTLGKQQTVMAIATKIALQMNCKMGGELWRVDIPLKLVMIVGIDCYHDMTAGRRSIAGFVASINEGMTRWFSRCIFQDRGQELVDGLKVCLQAALRAWNSCNEYMPSRIIVYRDGVGDGQLKTLVNYEVPQFLDCLKSIGRGYNPRLTVIVVKKRVNTRFFAQSGGRLQNPLPGTVIDVEVTRPEWYDFFIVSQAVRSGSVSPTHYNVIYDNSGLKPDHIQRLTYKLCHIYYNWPGVIRVPAPCQYAHKLAFLVGQSIHREPNLSLSNRLYYL
BRAIN
  TSA Expression Rate (ER): 76%
BREAST
  TSA Expression Rate (ER): 100%
HCC
  TSA Expression Rate (ER): 40%
OVARIAN
  TSA Expression Rate (ER): 68%
PANCREATIC
  TSA Expression Rate (ER): 71%
TSA expression rate in CRC
  Expression Rate (ER) %: 48%
[1]
  Expression Rate (ER) %: 83%
[2]
  Expression Rate (ER) %: 70%
[5]
  Expression Rate (ER) %: 76%
TSA expression rate in Kidney
  Expression Rate (ER) %: 52%
[6]
  Expression Rate (ER) %: 15%
[4]
  Expression Rate (ER) %: 4%

B4: CEA (protein, UniProt P06731 35-685, looked up)
Cell adhesion molecule CEACAM5: KLTIESTPFNVAEGKEVLLLVHNLPQHLFGYSWYKGERVDGNRQIIGYVIGTQQATPGPAYSGREIIYPNASLLIQNIIQNDTGFYTLHVIKSDLVNEEATGQFRVYPELPKPSISSNNSKPVEDKDAVAFTCEPETQDATYLWWVNNQSLPVSPRLQLSNGNRTLTLFNVTRNDTASYKCETQNPVSARRSDSVILNVLYGPDAPTISPLNTSYRSGENLNLSCHAASNPPAQYSWFVNGTFQQSTQELFIPNITVNNSGSYTCQAHNSDTGLNRTTVTTITVYAEPPKPFITSNNSNPVEDEDAVALTCEPEIQNTTYLWWVNNQSLPVSPRLQLSNDNRTLTLLSVTRNDVGPYECGIQNELSVDHSDPVILNVLYGPDDPTISPSYTYYRPGVNLSLSCHAASNPPAQYSWLIDGNIQQHTQELFISNITEKNSGLYTCQANNSASGHSRTTVKTITVSAELPKPSISSNNSKPVEDKDAVAFTCEPEAQNTTYLWWVNGQSLPVSPRLQLSNGNRTLTLFNVTRNDARAYVCGIQNSVSANRSDPVTLDVLYGPDTPIISPPDSSYLSGANLNLSCHSASNPSPQYSWRINGIPQQHTQVLFIAKITPNNNGTYACFVSNLATGRNNSIVKSITVSASGTSPGLSA
PANCREATIC
  TSA Expression Rate (ER): 60%

B5: IL13RA2 (protein, UniProt Q14627 27-380, looked up)
Interleukin-13 receptor …: DTEIKVNPPQDFEIVDPGYLGYLYLQWQPPLSLDHFKECTVEYELKYRNIGSETWKTIITKNLHYKDGFDLNKGIEAKIHTLLPWQCTNGSEVQSSWAETTYWISPQGIPETKVQDMDCVYYNWQYLLCSWKPGIGVLLDTNYNLFYWYEGLDHALQCVDYIKADGQNIGCRFPYLEASDYKDFYICVNGSSENKPIRSSYFTFQLQNIVKPLPPVYLTFTRESSCEIKLKWSIPLGPIPARCFDYEIEIREDDTTLVTATVENETYTLKTTNETRQLCFVVRSKVNIYCSDDGIWSEWSDKQCWEGEDLSKKTLLRFWLPFGFILILVIFVTGLLLRKPNTYPKMIPEFFCDT
BRAIN
  TSA Expression Rate (ER): 95%
[6]
  Expression Rate (ER) %: 12%
TSA expression rate in PEDIATRIC
  Expression Rate (ER) %: 58%

B6: KIF20A (protein, UniProt O95235 2-890, looked up)
Kinesin-like protein KIF20A: SQGILSPPAGLLSDDDVVVSPMFESTAADLGSVVRKNLLSDCSVVSTSLEDKQQVPSEDSMEKVKVYLRVRPLLPSELERQEDQGCVRIENVETLVLQAPKDSFALKSNERGIGQATHRFTFSQIFGPEVGQASFFNLTVKEMVKDVLKGQNWLIYTYGVTNSGKTHTIQGTIKDGGILPRSLALIFNSLQGQLHPTPDLKPLLSNEVIWLDSKQIRQEEMKKLSLLNGGLQEEELSTSLKRSVYIESRIGTSTSFDSGIAGLSSISQCTSSSQLDETSHRWAQPDTAPLPVPANIRFSIWISFFEIYNELLYDLLEPPSQQRKRQTLRLCEDQNGNPYVKDLNWIHVQDAEEAWKLLKVGRKNQSFASTHLNQNSSRSHSIFSIRILHLQGEGDIVPKISELSLCDLAGSERCKDQKSGERLKEAGNINTSLHTLGRCIAALRQNQQNRSKQNLVPFRDSKLTRVFQGFFTGRGRSCMIVNVNPCASTYDETLHVAKFSAIASQLVHAPPMQLGFPSLHSFIKEHSLQVSPSLEKGAKADTGLDDDIENEADISMYGKEELLQVVEAMKTLLLKERQEKLQLEMHLRDEICNEMVEQMQQREQWCSEHLDTQKELLEEMYEEKLNILKESLTSFYQEEIQERDEKIEELEALLQEARQQSVAHQQSGSELALRRSQRLAASASTQQLQEVKAKLQQCKAELNSTTEELHKYQKMLEPPPSAKPFTIDVDKKLEEGQKNIRLLRTELQKLGESLQSAERACCHSTGAGKLRQALTTCDDILIKQDQTLAELQNNMVLVKLDLRKKAACIAEQYHTVLKLQGQVSAKKRLGTNQENQQPNQQPPGKKPFLRNLLPRTPTCQSSTDCSPYARILRSRRSPLLKSGPFGKKY
BRAIN
  TSA Expression Rate (ER): 58%
LUNG
  TSA Expression Rate (ER): 95%
OVARIAN
  TSA Expression Rate (ER): 65%
PANCREATIC
  TSA Expression Rate (ER): 63%
[1]
  Expression Rate (ER) %: 35%
[2]
  Expression Rate (ER) %: 15%
[3]
  Expression Rate (ER) %: 64%

B7: PBK (protein, UniProt Q96KB5 1-322, looked up)
Lymphokine-activated killer …: MEGISNFKTPSKLSEKKKSVLCSTPTINIPASPFMQKLGFGTGVNVYLMKRSPRGLSHSPWAVKKINPICNDHYRSVYQKRLMDEAKILKSLHHPNIVGYRAFTEANDGSLCLAMEYGGEKSLNDLIEERYKASQDPFPAAIILKVALNMARGLKYLHQEKKLLHGDIKSSNVVIKGDFETIKICDVGVSLPLDENMTVTDPEACYIGTEPWKPKEAVEENGVITDKADIFAFGLTLWEMMTLSIPHINLSNDDDDEDKTFDESDFDDEAYYAALGTRPPINMEELDESYQKVIELFSVCTNEDPKDRPSAAHIVEALETDV
BRAIN
  TSA Expression Rate (ER): 100%
HCC
  TSA Expression Rate (ER): 64%
TSA expression rate in BLADDER cancer
  Expression Rate (ER) %: 43%

B8: ZNF165 (protein, UniProt P49910 1-485, looked up)
Zinc finger protein 165: MATEPKKAAAQNSPEDEGLLIVKIEEEEFIHGQDTCLQRSELLKQELCRQLFRQFCYQDSPGPREALSRLRELCCQWLKPEIHTKEQILELLVLEQFLTILPGDLQAWVHEHYPESGEEAVTILEDLERGTDEAVLQVQAHEHGQEIFQKKVSPPGPALNVKLQPVETKAHFDSSEPQLLWDCDNESENSRSMPKLEIFEKIESQRIISGRISGYISEASGESQDICKSAGRVKRQWEKESGESQRLSSAQDEGFGKILTHKNTVRGEIISHDGCERRLNLNSNEFTHQKSCKHGTCDQSFKWNSDFINHQIIYAGEKNHQYGKSFKSPKLAKHAAVFSGDKTHQCNECGKAFRHSSKLARHQRIHTGERCYECNECGKSFAESSDLTRHRRIHTGERPFGCKECGRAFNLNSHLIRHQRIHTREKPYECSECGKTFRVSSHLIRHFRIHTGEKPYECSECGRAFSQSSNLSQHQRIHMRENLLM
BRAIN
  TSA Expression Rate (ER): 100%
HCC
  TSA Expression Rate (ER): 52%
LUNG
  TSA Expression Rate (ER): 21%
TSA expression rate in CRC
  Expression Rate (ER) %: 43%
[5]
  Expression Rate (ER) %: 9%
TSA expression rate in LEUKEMIAS
  Expression Rate (ER) %: 52%
